B1: PfRH5 (natural protein)
chain: ENAIKKTKNQENNLTLLPIKSTEEEKDDIKNGKDIKKEIDNDKENIKTNNAKDHSTYIKSYLNTNVNDGLKYLFIPSHNSFIKKYSVFNQINDGMLLNEKNDVKNNEDYKNVDYKNVNFLQYHFKELSNYNIANSIDILQEKEGHLDFVIIPHYTFLDYYKHLSYNSIYHKSSTYGKYIAVDAFIKKINEAYDKVKSKCNDIKNDLIATIKKLEHPYDINNKNDDSYRYDISEEIDDKSEETDDETEEVEDSIQDTDSNHTPSNKKKNDLMNRAFKKMMDEYNTKKKKLIKCIKNHENDFNKICMDMKNYGTNLFEQLSCYNNNFCNTNGIRYHYDEYIHKLILSVKSKNLNKDLSDMTNILQQSELLLTNLNKKMGSYIYIDTIKFIHKEMKHIFNRIEYHTKIINDKTKIIQDKIKLNIWRTFQKDELLKRILDMSNEYSLFITSDHLRQMLYNTFYSKEKHLNNIFHHLIYVLQMKFNDVPIKMEYFQTYKKNKPLTQ
B2: PfCSS–PfPTRAMP heterodimer (complex)
chain 1: QDEKSVKNICVCDFTDKLNFLPLEKTKILCELKPQYGEDIKIIANKEYEINCMNNSKVFCPLKDTFINNTNIKLYSPKLHFEIKDITHKGKNAALYYLKIDEEASDIFFSCSIKPKQVSGLLEGEVRVNLKKHINEEYSIFNEEEDVHVCDFSKGNLDITPSAGFYLKNSRNVSCIYRVIPNKLFLIKLPKLDIVTEKLLPSIVNCLSEFSFINFTLKHVQEGDNYISFNVIFGEFKKHFNLTCSLDLSDFQQEPCNLGKTANITFIFSK
chain 2: CNLKVRNNWEHFLQVYQNNGNFKMEILEPECTIQKNLPSEEEKEEFIDFDRKELLLHDFVVIKNSQFTDEKTLELYLSKEENNKSYLMLTFYLGDLKLMIGHNSPYEISLILNVATVNKNMSNCKNNSYNIVLLKTTDVFNTSDLEILEGPIQFSLGKSSGAFRINVTNFFLNNTWKAFTKDKISFLIKPEENCYTILENKINKPQLLIEKKTTFYSEWGEWSNCSMDCDHPDNVQIRERECIHPSGDCFKGDLKESRPCIIPLPPCNELFSHKDNST
B3: basigin ectodomain (domain or fragment)
chain: AAGTVFTTVEDLGSKILLTCSLNDSATEVTGHRWLKGGVVLKEDALPGQKTEFKVDSDDQWGEYSCVFLPEPMGTANIQLHGPPRVKAVKSSEHINEGETAMLVCKSESVPPVTDWAWYKITDSEDKALMNGSESRFFVSSSQGRSELHIENLNMEADPGQYRCNGTSSKGSDQAIITLRVRSHLAAL
modifications: labelled with Alexa Fluor 488 (protein-labelling kit)
B4: full-length human basigin (receptor)
chain: AAGTVFTTVEDLGSKILLTCSLNDSATEVTGHRWLKGGVVLKEDALPGQKTEFKVDSDDQWGEYSCVFLPEPMGTANIQLHGPPRVKAVKSSEHINEGETAMLVCKSESVPPVTDWAWYKITDSEDKALMNGSESRFFVSSSQGRSELHIENLNMEADPGQYRCNGTSSKGSDQAIITLRVRSHLAALWPFLGIVAEVLVLVTIIFIYEKRRKPEDVLDDDDAGSAPLKSSGQHQNDKGKNVRQRNSS
modifications: labelled with Alexa Fluor 488 (protein-labelling kit)

Key:
[1] = target: B3; experiment: MST; replicate 2
[2] = target: B4; experiment: MST; replicate 2
[3] = target: T1, PfRIPR (P. falciparum, UniProt O97302 21-1086); experiment: SPR; replicate 4
[4] = target: T2, PfRIPR tail (P. falciparum, UniProt O97302 717-1086, N964Q | N1021Q); experiment: SPR; replicate 4
[5] = target: T2, PfRIPR tail; experiment: SPR; replicate 2
[6] = target: T1, PfRIPR; experiment: SPR; replicate 1
[7] = target: T2, PfRIPR tail; experiment: SPR; replicate 1
[8] = target: T3, PfRCR complex (P. falciparum, UniProt Q8IFM8;O97302); experiment: MST; replicate 1
[9] = target: T3, PfRCR complex; experiment: MST; replicate 2

Which results are given for B1?
Kd [1]: 151 nM; Kd [2]: 171 nM

Which Kd [3] does the source give for B2 here?
Its Kd is 4320 nM.

And the Kd [4]?
The Kd was 4900 nM.

What about the Kd [5] of the same binder?
The Kd was 5370 nM.

What about the Kd [6] of the same binder?
The Kd was 2970 nM.

What about the Kd [7] of the same binder?
The Kd was 2790 nM.

What does the source list for B3?
Kd [8]: 125 nM; Kd [9]: 184 nM

What does the source list for B4?
Kd [8]: 149 nM; Kd [9]: 181 nM

Reference: paper PMC10794152 (2023)
